Results as given in PMC5415192, “Zebrafish GDNF and its co-receptor GFRα1 activate the human RET receptor and promote the survival of dopaminergic neurons in vitro” (PLoS ONE, 2017).

B1: Zebrafish (Danio rerio) RET extracellular domain (residues 22-626) (domain or fragment, UniProt A8E7C6 22-626, looked up)
chain: GLYFPQRLYTENIYVGQQQGSPLLQVISMREFPTERPYFFLCSHRDAFTSWFHIDEASGVLYLNKTLEWSDFSSLRSGSVRSPKDLTLKVGVSSTPPMKVMCTILPTVEVKLSFINDTAPSCGQVELSTLCFPEKISNPHITENREPGALRQLRRFTHMSICPNYTISYGVVAGSSVPFAVDDSTSELVVTAQVDREEKEVYHLDIVCMVRTERNLEEVFRSLHVNIYDEDDNSPYVNGTDTEDVLVEFDRSEGTVFGTLFVYDRDTTPVYPTNQVQNKLVGTLMTNDSWIKNNFAIEHKFREEKAIFGNVRGTVHEYKLKLSQNLSVTEQRSFLLGYLVNDTTFPGPEGTVLLHFNVTVLPVPIRFSNVTYSFTVSQKATTYSQIGKVCVENCQKFKGIDVTYQLEIVDRNITAEAQSCYWAVSLAQNPNDNTGVLYVNDTKVLRRPECQELEYVVIAQEQQNKLQAKTQLTVSFQGEADSLKTDEPRFPACAEKRQRGDCEATRGLGAPTGRCQWRQGRDKGISKRYSTCSPNLGTCPDGYCDAIESKNISICPQDCSSEAIIGGYERDLYGIKAGHGTCYCFEGKCFCERDEPEDDICNDMC
notes: RET, Danio rerio, UniProt A8E7C6, extracellular domain, residues 22-626; cloned from zRET-CS2-MT+; The protein is glycosylated; also called zRET^ecd; zRET; source: Hi5 insect cells, baculovirus, secreted
B2: Complex of His-tagged zebrafish GFRα1 (residues 31-351) and zebrafish GDNF (complex, zebrafish (Danio rerio))
chain 1: DCVKANELCLKEPGCSSKYRTMRQCVAGRESNFSMATGMEAKDECRLVLDALKQSPLYNCRCKRGMKKEKNCLRIYWGIYQHLQGNDLLEDSPYEPVNSRLSDIFRLAPIYSGEPALAKENNCLNAAKACNLNDTCKKYRSAYISPCTSRVSTAEVCNKRKCHKALRQFFDKVPPKHSYGMLYCSCPLGDQSACSERRRQTIVPACSYEDKERPNCLTLQVSCKTNYICRSRLADFFTNCQPEPLSLSGCLKENYADCLLSYSGLIGTVMTPNYLRSPKISVSPFCDCSSSGNSKEECDRFTEFFTDNACLRNAIQAFGNG
chain 2: SSDVEPQMKRDRVRQKAAANTEKSGGRGRGERKRSRGRARSRDDRVKGQGRGCLLKEIHLNVTDLDLGYRTKEELIFRYCSGPCHDAETNYDKILNNLTHNKKLDKDTPSRTCCRPIAFDDDISFLDDSLEYHTLKKHSAKKCACV
notes: GDNF family receptor alpha-1, Danio rerio, UniProt Q98TT9, residues 31-351, lacking the GPI-anchor; Glial cell line-derived neurotrophic factor, Danio rerio, UniProt Q98TU0, mature GDNF, residues 90-236; as m6; In the BLI experiment His-tagged zGFRα1 was held on the Ni-NTA tip, and zGDNF was supplied pre-mixed with zRET^ecd; The stoichiometry of the complex was not measured here; also called …
B3: Zebrafish (Danio rerio) mature GDNF (residues 90-236) (ligand, UniProt Q98TU0 90-235, looked up)
chain: B2 chain 2
notes: Glial cell line-derived neurotrophic factor, Danio rerio, UniProt Q98TU0, mature GDNF, residues 90-236; 'zGDNF' is the construct in the original pK503.9 vector (Flag-tag only); Whether its Flag tag was removed is not clear; It appears as a mixture of a DTT-sensitive dimer and monomer, and it is glycosylated; also called zGDNF; zebrafish GDNF; source: Hi5 insect cells, baculovirus, secreted; …

Experiments:
[1] = molecular target: the molecule itself; test: SEC + native gel or EMSA; affinity-purified zRET^ecd separated by SEC into two peaks; fractions and pools run on BN-PAGE and SDS-PAGE
[2] = molecular target: B1; test: BLI; BLItz; His-tagged zGFRα1 (58 μM, 4 μl) immobilised on Ni-NTA tips; pre-mixed zRET^ecd and zGDNF at 0.3-44 μM; 20 mM HEPES pH 8, 150 mM NaCl, 1 mM CaCl2; plateau values fitted as Scatchard plots; triplicate; details: both partners purified
[3] = molecular target: the molecule itself; test: SDS-PAGE with and without DTT; purified zGDNF on a Coomassie-stained gel, with 1 mM DTT or without

B1
stoichiometry N [1]: 2

B2
Kd [2]: 5.9 ± 1.5 µM

B3
stoichiometry N [3]: 2
